Measurements taken from a protein production outcome set (Wang et al. 2014).

Assay: label from the status in PepcDB records
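Also: failed if final PepcDB status was selected cloned or expressed and not failed if soluble or beyond.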

Sequence	protein production
MEIGLSLGLKSDEGGLKLSLSECGCHVEDITIELEGGASWFYQGMVNAFKDQIGSSVESTIAKKLTEGVSDLDSFLQSLPKEIPVDDNADLNVTFTSDPILRNSSITFEIDGLFTKGETNQVLKSFFKKSVSLVICPGNSKMLGISVDEAVFNSAAALYYNADFVQWVVDKIPEQSLLNTARWRFIIPQLYKKYPNQDMNLNISLSSPPLVKISEQYVGANVNADLVINVLDANQVIPVACISLMIRGSGALRVMGNNLGGSVSLEDFSMSLKWSNIGNLHLHLLQPIVWTVIQTVFVPYANDHLEKGFPLPIMHGFTLQNAEIICSESEITVCSDVAYLDSSQQPQWL	failed
MFIPAAQSAYRTLRKTQPRVRLNAIFKNGYSSKVEYKPIRSVLVANRGEIAIRVFRACTELGIKSVAVYSEQDKMHMHRQKADESYIVGKGLPPVEAYLNIPELIRVCKENDVDAVHPGYGFLSERSDFAQAVIDAGLRFIGPSPEVVQKMGDKVAARVAAIEAGVPIVPGTDGPVTTKEEALEFCKKHGLPVIFKAAYGGGGRGMRVVRKMEDVEESFQRASSEAKAAFGNGAMFIEKFIERPRHIEVQLLGDKAGNVVHLYERDCSVQRRHQKVVEIAPAPRLPIEIRDKMTEAAVRLARHVGYENAGTVEFLCDESGNFYFIEVNARLQVEHTVTEEITGIDLVQSQIRVAEGMTLPELGYTQDKIVPRGYAIQCRVTTEDPANDFQPNTGRLEVFRSGEGMGIRLDSASAYAGAIISPYYDSLLVKVISHASDLQSSASKMNRALREFRIRGVKTNIPFLLNVLENQKFLHGVLDTYFIDEHPQLFKFKPSLNRAQKLLNYMGEVLVNGPQTPLATTLKPALVSPHVPEVPLDLSPEAIEREERGEAKVTEPPKGLREVLVCEGPEAFAKEVRNRKELLLMDTTFRDAHQSLLATRVRSHDLLKISPYVTHKFNNLYSLENWGGATFDVALRFLHECPWERLEEMRKRIPNIPFQMLLRGANAVGYTSYPDNVVYKFCELAVQTGMDIFRVFDSLNYLPNLILGMEAAGKAGGVVEAAISYTGDVSDPKRTKYDLKYYTNLADELVKAGTHVLCIKDMAGLLKPESARLLITAIRDKHPDIPIHIHTHDTSGAGVASMLACANAGADVVDVAVDSMSGMTSQPSMGAVVASLQGTPLDTNLDLRTVSEYSAYWEQTRTLYAPFECTTTMRSGNADVYLNEIPGGQYTNLQFQAFSLGLGDFFEDVKKAYREANLLLGDIIKVTPSSKVVGDLAQFMVQNDLTADQVLERAEELSFPKSVVEYLQGSIGIPHGGFPEPLRSRVLKDMPRIEGRPGAELKDLDFDKLKKELQESHTCVTNRDVMSAALYPQVTNDFLNFREKYGPVDKLDTRIFLTGPKVGEEFDVPLERGKTLSVKALAVSADLKPNGIREVFFELNGQLRAVHILDKEAVKEIHVHPKANKSNKSEVGAPMPGTVIDIRVKVGDKVEKGQPLVVLSAMKMEMVVQSPLAGVVKKLEIANGTKLEGEDLIMIIE	failed
MNKFGAEKIFIEKQSGATITHRPIFQEALDFVRAQDIFIVEAIDRLGRNYDEIIDSVNYLKKKNVRLIITSLPIMAEAIGNPLLDKFIKDLIIQILAMIAEQERTESKRRQAQGIKIAKANGVYKGRPKLYSADTKDPQRRLVYKSIVQDLKNGVAISKIAKDYNITRQTIYRIKKEIHELEIN	failed
MSLFPGDIEELARRIITDFTPLGLMVSTAESCTGGLIAGALTEIAGSSAVVDRGFVTYTNDAKRDMLGVGTETLTTFGAVSRQTALQMAHGALYRSRANFAVAVTGIAGPGGGSAEKPVGLVHLATKARNGNVLHHEMRYGDIGRTEIRLATVRTALEMLIALNQAGSV	not failed
MSRPDDIDVRPIAEAETADWIRALNTGFLRSPEVSEREVADRSSYLVPARTLGAFDNGRCVATFRSFPQELTAVGGASVPADAISNVTVTATHRRRGLLTRMMAQDLAAAKERGDVVATLIAAEYPIYGRYGFGAATHSTEWTIDVPRTGLDPRWSGPGDGGRIDLVDGEDVRKAGPELHERLRRTQPGAVSRDERWWQVHTGVVRLDRSPWTEPFYAVYRSASGEVEGLVSYECDDHWGDAKQPQNTAKVNWLIATTPAAERALWHYLCSIDWITKVRTGWRAPDDLLPHFLPDPRAARVTTHADWLWVRILDVVRALEARTYDGSGTLVLDVVDRHGLAGGRYRLTVGPDGAVCEPTTRDAGLTLDVGELAALWLGDASAVRLAALGRVREQQEGAASVADALLRTSGRPWCPDMF	not failed
MIGNPVIQVPSSLMPSSSMIACPRVSPNGVPYLPPKPRTRHLVVRAASNSDAAHGQPSSDGGKNPLTVVLDVPRNIWRQTLKPLSDFGFGKRSIWEGGVGLFIVSGATLLALSWAWLRGFQMRSKFRKYQTVFELSHASGICTGTPVRIRGVTVGTIIRVNPSLKNIEAVAEIEDDKIIIPRNSLVEVNQSGLLMETMIDIMPRNPIPEPSVGPLHPECGKEGLIVCDRQTIKGVQGVSLDELVGIFTRIGREVEAIGVANTYSLAERAASVIEEARPLLKKIQAMAEDAQPLLSEFRDSGLLKEVECLTRSLTQASDDLRKVNSSIMTPENTELIQKSIYTLVYTLKNVESISSDILGFTGDEATRKNLKLLIKSLSRLL	failed
QSVHDIEKTLIRIGVVQWQMRAMNDLEDLLDQAEFFISSLANYKADFALFPEFFNAPLMGLQNDQNSVEAIRFLASFTEEIKNRFSQMAVTYNINIIAGSMPLIEDGKLYNVAYLLQRDGEINAQYKIHITPHEQKDWVIDGGDNVQVFETDAGKVGILICYDSEFPELGRMLAEQGAQIIFVPFWTDTKNGYQRVRICSQSRAIENECYVAIGGSVGNLPRVDNVDIQYAQSAVFSPSDIYFPHDATLTEASANTEMIIFADVDLTKLKQLNTEGSVTNLRHRRLDLYGAFTTPKE	failed
MLDSRQAVFFRFFFGVLPQSGRGQVMTELARTIVAGVGGADNIVSLMHCATRLRFKLKDESKAQAEVLKKTPGIIMVVESGGQFQVVIGNHVADVFLAVNSVAGLGEKAQQAPENDDKGNLLNRFVYVISGIFTPLIGLMAATGILKGMLALALTFQWTTEQSGTYLILFSASDALFWFFPIILGYTAGKRFSGNPFTAMVIGGALVHPLILTAFENGQKVDALGLDFLGIPVTLLNYSSSVIPIIFSAWLCSILERRLNAWLPSAIKNFFTPLLCLMVITPITFLLVGPLSTWISELIAAGYLWLYQAVPAFAGAVMGGFWQIFVMFGLHWGLIPLIINNFTVLGYDTMIPLLMPAIMAQVGAALGVFLCERDAQKKVVAGSAALTGLFGITEPAVYGVNLPRKYPFVIACISGALGATIIGYAQTKVYSFGLPGIFTFMQTIPSTGIDFTVWASVIGGVIAIGCAFVGTVMLHFITAKRQSAQVAQQEKTPEVITPEQGGICSPMTGEIVPLIHVADTTFASGLLGKGIAIMPSVGEVRSPVAGRIASLFATLHAIGIESDDGVEILIHVGIDTVKLDGKFFSAHVNVGDKVNTGDRLISFDIPAIREAGFDLTTPVLISNSDDFTDVLPHGTAQINAGEPLLSIIR	failed
NSDLGGTLQFTSSNPDKAFGARLSQTLGSYDTSRTFMRVDTGEYNGLSAYVSGEKYDADAWKGHNNPQKSDAVNAKINYNFGDNRVSFFHSTSSHDEANLPSLSPSIIQRLGYNWSYYTPDWTRAVNAANGIYTGGVTSAGDATYNASSLRDDELDILNGNFSLTDDLVLDATVYHHHDSGRGNSYYPFVYTSGATTVPSNAIRSTVYGIDRTGFQSSLTYFLGQHEIQAGFWIQSNKNDIARYLFDTTNATPQNHIVKTNGLPLAATVLDQSYNDLTRQFYLRDTYTLLDDRLKLEFGAKNTVTTSTAKGKGGGYASGSLEARDRFLPQVGATYKLNDSDEVFTSYSENMAAFPSGGYSPFFTTQTAVDAQNGFKDLKPETSKTVELGLRRSTKLYSASAAVYNTRFDNRLVAITNCTGIVICQNGVANVGSVTSRGLELSLGLTPNENWRWSNSMSYNHSTYDDDYASGGSTVQVKGKTVVDTPKLMYSSSLDWNWEHWNAGLQGNYISKRYYTYTNDSSVSGYWLANANLGYDCGKLGALKDTTVSLNMVNLFDKRYISTLNTDASAAADPSGNLQILQVGTPRSAFVTLGVKL	failed
MLKSVNLPVCHSLRNHLAVSSISTTPPSLIIPLLSPIFLRISSSSSNSVILNFSVKASFLVSKILLINLRAGFTGSLILSAGKPPFITSSSKSSIGTTPGVSKSQIFLVSLIICLPFVYPGIGAVPTECFPLSTFIIVLFPTFGYPINATLTLSLLIIFAIFFSSLLRIPVPFLSLAEIKTTGISLFLLYSSAHSLGTKSALFITNKSFLPLSKTILSSFLFLVPMGSLASTTSTTMSASSITSFTIAQAFFCFIPHHRYFKDYGTPWGIRGARVGTLDVGLILGSKPYFFWLHAFSERYYVG	failed
MSKIEDIRKFYARLMAANAASSDPRLEQVFATVPREAFLGPGPWTIVAGSGRVTTPSADPAHIYQNVLVALDADKGINNGEPFLHAMWIGKLAPKPGEAVTHVGAGTGYYSAVLARLVSPGGTVTAFELEGRLADLARKNLEIYGNATVIHGDAVTRPLPPSDIIYVNAGVVAPPVGWLKALRPGGRMIFPWRPSERVPLAVMVTRTEKGFACDPFMRSWFIPCIGASVADLAAKIPTPEQATRSRSIWLTQHKAPDRTATAIFGDVWFSTKDVRAKPGS	failed
MSRDEVLTRMRRFGPLAVVAVLCAAAFASGLVEHISLEELRLRGTQLQAFAHENPLLCAAIYLAVYVGTVAISLPGALILSLTGGFLFGPIGGGLAAVTGATGGSTVTFLVFRTAFGEALPFKSSAFIARIAEGLKGDAFNYLLTLRLIPAFPLLAVNVAAGVMNVRVRTFLLASVLGMIPSSFVYAGIGAGLGHVFAKGGPVTVESLLSPRIYLPIIGMGVLAFLPPLWRHWRNGRDVASLDEK	failed
MSVPQGARDVEAIRAIGPDQWQTVPAGQTLNRGFSDDEFWLQVRVPAQPANRVLEVGYPLLDEVSVYWELDGRIIESHHTGDTRPFDSRPIVHRNFVFLVPSNTEPVTAWIRVQTQGSVQVPVAVTPSAEFLANEQISYGWQTMFLGIVVALALYNLFLFLIVRHQTYLWYVLTVVCSGAVQLNFNGLLFQWFWPDVPWINRYFTVPVVSAALIAAIVFTMKFLLVKSYSRWGYRILQALLAVNLLGLIYGFLGSYQVGIIWISSLAAFATPVAWLIGINVWRRGQILGGFYVLAWTPLLLGHLVLAVSKLGWIPRSPFTELAPQAGVAVEVILLSFALAYRINMERRRRQQAQEHALDIQRQANLTLESRVRERTEELEQANEQLRAISLTDGLTHVANRRRFDEKLETEWNRALRHEHELSLILLDIDHFKQVNDRFGHLVGDDCLVALASILSDEVQRSGDLVARYGGEEFAILLPTTDVAGAQQVAERMRLSVARTPVNSGEHMSPVSLTISLGVATLTPNRQSDCQELIRRADEALYAAKSDGRNRVVVWHPKAVAPTTG	failed
MDMIKPDFQQIRRDKFRVEQMNDFPNTWTQQQHQNIRIPNNLDLIGILQNQISVPVQTDLYQDSAATFMNMPQSIHRDPQGPSNWRISDLSQPSTVNHGYDQAGIRPNNVADLLSDHFSSRNQILDRPLYVGRDSIPQSSMIRRSEVSCLDDNQKGCVTVACSGTGNEILRSSYDQGSSSGSYRGEFSFLPSLENQSVAHNASNWNHGPVNVTATSHTNSKKGFPLSLLSDIPPSRDVGNAAVLSTMNIHGPLGPFTGYASILKSSRFLEPAQKMLEEFCISYASKIISRSESTSMEDDDDDDDNLSGFSSSSEPLEPKNRLKKAKLLFLQEEVCKWYKLYNHQLQTVMSSFNTVAGLNTATPYISLALKRTSRSFKALRTAIAEHVKQISSHSSNGNNNNRFQKRQRSLIGNNVGFESQQQHIWRPQRGLPERAVAVLRAWLFDHFLHPYPTDSDKQMLATQTGLSRNQVSNWFINARVRLWKPMVEEIHTLETKAIKNADTSHNIEPSNRPNTVSSPSHEQTLTGLSGTKRSRLEYMDMVGFNRGNVSLTLELRRGVDNVIQTQTQDHQFGTGSQMFHDFVG	failed
MNVYDLIAEHYSGLFPLETEKLEFIQHLCPLPGRLCDAGCATGELVMGLYQKGYDICGLDLNEKMIGIAEKKASCIRKTGELMFYHADIADIMQFGKFKGVLCFGNTLPHLRDEEALRRFFGSVYRSLEEHGIFIVEVLNYDRILDDKKMDFKDKETKDFIFKRNYDFLPGGNIRFTIEFTDKQRSTVGSDFTVLHPLKRQMLLALFKQTGFKSVSAYSDYSFTESRAEDYAVVYTANK	failed
